# Data: US20040121947A1, “Compounds which inhibit beta-secretase activity and methods of use thereof” (Oklahoma Medical Research Foundation, priority 2000, published 2004)
# pKi: −log10 of the molar value. *1 amine or outer side, *2 acyl side, *3 side chain or, on linkers, in order; H or OH if unused. Where a SMILES comes first, the peptide text is derived from it. [ ]: non-standard residue; d: D form. The star is where a group is joined. LeuΨ(S-CHOHCH2)Ala = CC(C)C[C@H](N[*:1])[C@@H](O)C[C@@H](C)C(=O)[*:2]; 5FAM = O=C1OC2(c3ccc(O)cc3Oc3cc(O)ccc32)c2ccc(C(=O)*)cc21; Ahx = NCCCCCC(=O)O
# Tests used:
# HEK293 cells = assay: Penetration of fluorescently labelled inhibitors into cultured cells (flow cytometry); assay type: cell-based, human; conditions: incubation 10 to 30 minutes
# Description: Fluorescently labelled inhibitors or fluorescein (Fs) as a control were incubated with suspended cells for time intervals ranging from 10 to 30 minutes. Cells were fixed with paraformaldehyde and permeabilized in 0.2% Tween-20 in PBS for 6 minutes and incubated with anti-fluorescein-Alexa™ 488 antibody (Molecular Probes, Eugene, Oreg.) in order to enhance detection of intracellular inhibitor present from penetration. Flow cytometry (FACSCalibur™) and confocal fluorescent microscopy (Leica TCS NT™) were performed at the Flow and Image Cytometry Lab, OUHSC.
# [1] = Transport of conjugated inhibitors to mouse blood, spleen and brain after i.p. injection; conditions: mouse, in vivo, ip
# Description: Whole blood cells (with EDTA as anti-coagulant in the syringe or in the capillary tube) were isolated from anesthetized animals from the orbital artery or by heart puncture and diluted 1:10 in PBS. Prior to the harvest of other tissue samples, animals were anesthetized and perfused with 150 ml of neutral-buffered 10% formalin. Spleens were harvested intact. Brains were harvested and cerebral hemispheres separated, one for sectioning by cryostat, the other for single cell isolation for flow cytometry.
# Sections of the brain hemispheres were obtained by soaking in OCT/PBS at 4° C. for overnight, recovered and frozen in Histo Prep Media.
# To collect single cell suspensions, spleens and brain hemispheres were homogenized through a 30 μm screen and directly analyzed by flow cytometric analysis.
# memapsin 2 = target: T1, memapsin 2 (Homo sapiens, UniProt P56817); assay: Inhibition of memapsin 2 proteolytic activity, fluorogenic substrate FS-2; assay type: biochemical; conditions: memapsin 2, carrier peptide-inhibitor conjugates; read-out: Ki apparent
# T1 construct: pET-11 vector-derived residues 1-15 of promemapsin 2-T1 (N, cleaved yes); made in house; host or cells: E. coli
# In short: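 Inhibitors tested at about 10 nM to 10 μM in pH 4.0 0.1 M sodium acetate containing 10% (v/v) DMSO, after 20 min preincubation at 37 °C with 80 nM self-activated memapsin 2. Substrate-independent Ki derived from apparent Ki via Km and substrate level.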
# [2] = Martin et al. 1999; cited from earlier work
# T1 sequence (P56817 41-454 limits assumed): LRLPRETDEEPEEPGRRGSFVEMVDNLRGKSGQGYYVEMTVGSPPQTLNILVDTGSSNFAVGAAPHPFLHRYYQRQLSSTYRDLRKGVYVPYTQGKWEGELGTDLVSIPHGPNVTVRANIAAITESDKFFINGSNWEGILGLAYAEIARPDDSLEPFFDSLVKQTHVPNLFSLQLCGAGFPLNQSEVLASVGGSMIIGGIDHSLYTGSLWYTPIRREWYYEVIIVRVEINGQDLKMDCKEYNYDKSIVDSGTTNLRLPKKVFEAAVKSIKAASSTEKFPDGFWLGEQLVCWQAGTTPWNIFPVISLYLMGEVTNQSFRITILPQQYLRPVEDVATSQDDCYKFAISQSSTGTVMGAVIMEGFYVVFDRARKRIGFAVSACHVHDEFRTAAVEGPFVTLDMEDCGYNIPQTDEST
structure (smiles),measurement,setting,value
CC(C)C[C@H](NC(=O)[C@H](CCC(=O)O)NC(=O)CCCCCNC(=O)c1ccc2c(c1)C(=O)OC21c2ccc(O)cc2Oc2cc(O)ccc21)C(=O)N[C@@H](CC(=O)O)C(=O)N[C@@H](CC(C)C)[C@@H](O)C[C@@H](C)C(=O)N[C@H](C(=O)N[C@@H](CCC(=O)O)C(=O)N[C@@H](Cc1ccccc1)C(=O)NCC(=O)NCC(=O)N[C@H](CCCNC(=N)N)C(=O)N[C@H](CCCNC(=N)N)C(=O)N[C@H](CCCNC(=N)N)C(=O)N[C@H](CCCNC(=N)N)C(=O)N[C@H](CCCNC(=N)N)C(=O)N[C@H](CCCNC(=N)N)C(=O)N[C@H](CCCNC(=N)N)C(=O)N[C@H](CCCNC(=N)N)C(=O)N[C@H](CCCNC(=N)N)C(=O)O)C(C)C [CPI-2] ({5FAM-Ahx}-ELD[LeuΨ(S-CHOHCH2)Ala]VEFGG[dR][dR][dR][dR][dR][dR][dR][dR][dR]-OH),Penetration of cultured cells (intracellular fluorescence),HEK293 cells,readily penetrated cultured cells within minutes
same,Splenocytes with fluorescence peak shift,[1],~100%
same,pKi,memapsin 2,7.24
CC(C)(C)NC(=O)[C@@H]1CN(Cc2cccnc2)CCN1C[C@@H](O)C[C@@H](Cc1ccccc1)C(=O)N[C@H]1c2ccccc2C[C@H]1O [indinavir],Crossing of the blood-brain barrier,[2],can cross the blood-brain barrier
